This is an account of results in publication PMC12455589, “Abundant bacterial nucleoid-associated protein H-NS limits plasmid transfer through mechanical modification of DNA”.

The target of this data set is T1, H-NS (Escherichia coli, UniProt P0ACF8 1-137).
T1 sequence: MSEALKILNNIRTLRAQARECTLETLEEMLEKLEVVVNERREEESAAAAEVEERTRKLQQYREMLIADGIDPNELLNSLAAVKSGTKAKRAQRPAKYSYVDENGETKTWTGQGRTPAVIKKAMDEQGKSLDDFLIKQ
In words: EMSA; 0-80 ng/uL protein; 10 mM Mg2+; EMSA: 10 mM Tris-HCl pH 7.9, 125 mM KCl, 10 mM MgCl2, 0.1 mM DTT, 2.5% glycerol, 30 min, room temperature; bridging: 20 mM Tris-HCl pH 7.4, 150 mM NaCl, 1 mM DTT, 5% glycerol, 0.05% Tween 20, room temperature. The settings on record: protein: recombinant; tags: His6 (N-terminal); chain copies: 2; blunt.

B1: HBS dsDNA probe (P21/P22) (dsDNA)
DNA 1: TAATTATTATAACTAAAAGTTTCTTTAATAATAAAACGAATAACTTGCAGATTTGAAAT
DNA 2: ATTTCAAATCTGCAAGTTATTCGTTTTATTATTAAAGAAACTTTTAGTTATAATAATTA
Take B1: the binding result is “binds”.
